Measured values as given in the supplement of paper PMC12764529.
± gives the half width of the 95% confidence interval.

What was measured:
[1] = folding stability dG unfold (combined trypsin and chymotrypsin); higher = more stable
In short: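 Designed mini-proteins with no cysteine and under 80 residues were kept only if AlphaFold2 dimer inter-PAE was above 15. In a PA-tagged cDNA display construct, they were digested with trypsin and chymotrypsin and then sequenced. K50 was inferred by Bayesian fitting of counts, and unfolding free energy was derived per protease or combined against a sequence-predicted unfolded-state K50 and a shared folded-state K50.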

[2] = folding stability dG unfold from chymotrypsin proteolysis; higher = more stable
Method: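 Folding stability of de novo designed mini-proteins (<80 aa, no Cys; designed by TrROS, TrMRF, ProteinMPNN and the joint model) was measured by cDNA display proteolysis with trypsin and chymotrypsin. Each protease was used at 11 concentrations in a threefold dilution series plus a no-protease condition. K50 was inferred by Bayesian fitting of sequencing counts, and dG unfold was derived against a sequence-predicted unfolded-state K50 (Tsuboyama et al. method). Sequences shown include variable-length N-terminal GS-type padding (SAGGSAGG...) inside a display construct carrying a PA tag. Rows were kept only if the AF2 dimer inter-PAE was >15, to exclude likely homo-oligomers.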

| Sequence | folding stability dG unfold [1] [kcal/mol] | folding stability dG unfold [2] [kcal/mol] |
| --- | --- | --- |
| SAGGMTVTLRLTDPAGEEYTVTVTKTEGKSTATVYGPGGELVETRDFSSAEEAIAYLRAQGYTVEVIESAGG [r13_315_JUSTAS] | 5.34 ± 0.081 | 5.323 ± 0.049 |
| SAGGMTVVSTETDTATGRPVRTVRLPPEASLRELAALDGWVRLVDPAPDREVELPAEDPEAVVEALLASAGG [r13_604_JUSTAS] | -0.504 ± 0.22 | 0.0196 ± 0.13 |
| SAGGNLRIRIEMENKDGNKRKIPIPEEEFNRIKESLKNGKPITPEPASWISDYARRNGYDVKIVDIYSAGGS [r8_159_TrROS] | -0.35 ± 0.33 | -0.101 ± 0.36 |
| SAGGPNFMFRVKMPHPRPKKDPEDGKEKWRPQRHEHTVPFPADDPEQALDELADNMPPNNFKITDITSAGGS [r16_459_TrROS] | -0.0582 ± 0.18 | 0.45 ± 0.22 |
| SAGGSAEIEPVSSEVDPNSDRTVTTNRIPGSGKTRTVTYDSSNPGVTTVTTYAPGGKPLSTTTLPTSAGGSA [r15_974_JUSTAS] | < -1 | -0.474 ± 0.28 |
| SAGGSAGGALTPTDEVTLTLPDGTVRPGRVEVLPDNVVRVRLEGSEVLLTRDPEGDEVTVERVASAGGSAGG [r6_68_JUSTAS] | 0.503 ± 0.047 | 0.964 ± 0.011 |
| SAGGSAGGAPVYVTTDTRERADPNGSTVRTSLVRDPNGPATYRVTETVPPDGSVASTTTAVPGASAGGSAGG [r6_839_JUSTAS] | < -1 | -0.532 ± 0.23 |
| SAGGSAGGDIKIEDIEYEQNPGGWQKVEVRLPGNGRPIEVPVPPGMPYEQAKDWAKDWAEELLKSAGGSAGG [r6_628_TrROS] | 0.511 ± 0.22 | 0.724 ± 0.13 |
| SAGGSAGGDKVTIESFHPENWYFRIRYPGNGKPISFPIKSVDELLDKIEPSGLPVEIEWMPPEESAGGSAGG [r6_33_TrROS] | -0.0248 ± 0.32 | 0.233 ± 0.26 |
| SAGGSAGGGASTRRTITVPYEDPEEAFEKVKEEVKAETGKPTEVTLTEIDPNNPGVITVEVTVSSAGGSAGG [r6_211_JUSTAS] | 0.351 ± 0.07 | 0.938 ± 0.019 |
| SAGGSAGGKEVKVTLEYDEETGTLTLTVETPDGYVFKLEITFEKDEDGNLKVTIKLEVIPLEDLSAGGSAGG [r6_537_TrROS_Hall] | 4.39 ± 0.61 | 4.45 ± 0.21 |
| SAGGSAGGKTKVKGTLIGPNGPPVEVEGEALLPDGREYDVHIDAVLLPDPEGEPTVVVKVEVKPSAGGSAGG [r6_334_TrMRF] | -0.127 ± 0.23 | 0.168 ± 0.051 |
| SAGGSAGGMFVPEGKTVTVKLPGNETVTVKVKAGNSRPFDSLEEIEAFAAQPGFDIEVSSSPAKSAGGSAGG [r6_433_JUSTAS] | -0.722 ± 0.21 | 0.0627 ± 0.077 |
| SAGGSAGGMLVPLDDTRVVPLPDGSYAVLVRPADGSELLREFDSLEDAVEWAEATGAGVADLPASAGGSAGG [r6_84_TrMRF] | -0.553 ± 0.34 | 0.0582 ± 0.18 |
| SAGGSAGGMPVVVETRPDPETGNEIVRITVPKPNYTLVLRRDSQGKETLLAEIGPYTPDDPGLLSAGGSAGG [r6_149_JUSTAS] | -0.00962 ± 0.23 | 0.474 ± 0.18 |
| SAGGSAGGMREIEHEIPNPNGRNIKIKIEYDPDQGWHPVEIENPGNGKKKTYPFDSADEVLDQLSAGGSAGG [r6_465_TrROS] | 0.0475 ± 0.17 | 0.598 ± 0.031 |
| SAGGSAGGMTIKELLKEGVPFKIEMYGPNNGEPREFKIPPGESIDDILENMPFPPGMQIRIEPKSAGGSAGG [r6_232_TrROS] | -0.142 ± 0.42 | 0.121 ± 0.31 |
| SAGGSAGGMVITFTAPDGTPLGTVEVELPPNNPEAEEEARELAEALRAELEEAGRPVAATVEPASAGGSAGG [r6_884_JUSTAS] | 0.309 ± 0.14 | 0.903 ± 0.088 |
| SAGGSAGGNTIELPLPNGMELEIPVQKNPEGYYQVNIERYDPDDGKKKEIPFTMPAEDIKDFLKSAGGSAGG [r6_859_TrROS] | -0.785 ± 0.36 | -0.205 ± 0.29 |
| SAGGSAGGPPPVRVTIETETTTTFPNGTPRTTTNTVVLDAPEEEAEAAVAAIPASVVKSVARTGSAGGSAGG [r6_985_JUSTAS] | -0.187 ± 0.24 | 0.486 ± 0.057 |
